According to patent publication US10864252B2, “Anti-SSX-2 T cell receptors and related materials and methods of use” (The United States of America, as represented by the …, priority 2010, dated 2020):

Tests used:
Type in all cases: cell-based
SK MEL37 = experiment: IFN-γ release, co-culture with SK MEL37 melanoma; details: co-cultured with SK MEL37 (Melanoma)
Description: (§1) SSX-2 TCR-transduced PBLs were co-cultured with various tumor cell lines. […] FIGS. 4A and 4B, FIG. 11, and Tables 3 and 4 show additional results of PBLs from human donors that were transduced with the SSX-2 TCR of Example 2 when these PBLs were co-cultured with various tumor cells. PBLs that were untransduced (UT) or transduced with a vector comprising SEQ ID NO: 27 (SSX-2 TCR), SEQ ID NO: 29 (codon-optimized SSX-2 TCR), or SEQ ID NO: 30 (codon-optimized SSX-2 TCR including mouse constant region) were co-cultured with various tumor cell lines. Tables 5 and 6 show the resulting interferon-γ levels (pg/ml) measured with respect to PBL from two different donors.

COS-A2 = experiment: IFN-γ release, TCR-transduced PBL co-cultured with COS-A2; details: for IFN-γ: human donor PBL co-cultured with COS-A2; for interferon-γ levels: co-cultured with Cos-A2
Description: as §1

T331A mel = experiment: IFN-γ release, co-culture with T331A; details: for IFN-γ: co-cultured with T331A; for interferon-γ levels: co-cultured with T331A mel
Description: as §1

293-A2 = experiment: IFN-γ release, co-culture with 293-A2; details: co-cultured with 293-A2
Description: as §1

888 = experiment: IFN-γ release, co-culture with 888; details: co-cultured with 888
Description: (§2) SSX-2 TCR-transduced PBLs were co-cultured with various tumor cell lines. […] FIGS. 4A and 4B, FIG. 11, and Tables 3 and 4 show additional results of PBLs from human donors that were transduced with the SSX-2 TCR of Example 2 when these PBLs were co-cultured with various tumor cells.

T567A = experiment: IFN-γ release, co-culture with T567A melanoma; details: co-cultured with T567A (Melanoma)
Description: as §2

[1] = system: SSX2+/HLA-A2+ target cells; experiment: Proliferation ([3H]-thymidine) on co-culture with tumor cells; details: 1300 mel, 624 mel, 888 mel, SK mel 37 or COS-A2-SSX-2 cells; FIGS. 9A-9E
Description: In another experiment, PBLs transduced as described in this example were co-cultured with 1300 mel cells, 624 mel cells, 888 mel cells, SK mel 37 cells, or COS-A2-SSX-2 cells.

[2] = system: SSX-2+/HLA-A2+ target cells; experiment: Percent lysis of target cells; details: FIGS. 7A-D and 8A-D, various E:T ratios
938-A2 mel = experiment: IFN-γ release, co-culture with 938-A2 melanoma; details: Table 3; co-cultured with 938-A2 (Melanoma)
Description: as §1

COS-A2-SSX-2 cells = experiment: Proliferation ([3H]-thymidine) on co-culture with COS-A2-SSX-2 cells; details: PBL from Donor 1 or Donor 2; FIGS. 6A, 6B
Procedure: PBLs from Donor 1 or Donor 2 that were untransduced (UT) or transduced with a vector comprising SEQ ID NO: 27 (SSX-2 TCR), SEQ ID NO: 29 (codon-optimized SSX-2 TCR), or SEQ ID NO: 30 (codon-optimized SSX-2 TCR including mouse constant region) were co-cultured with COS-A2-SSX-2 cells. Proliferation in terms of [^3H]-thymidine incorporation (CPM) was measured and is shown in FIG. 6A (Donor 1) and 6B (Donor 2).

COS-A2-SSX2 cells = experiment: CD137 (4-1BB) upregulation after co-culture with COS-A2-SSX2 cells; details: FACS after co-culture with COS-A2-SSX2 cells

B1: SSX2-TCR-WT: HLA-A2 restricted anti-SSX-2 TCR alpha and beta chains encoded by SEQ ID NO: 27, tested as transduced human PBLs (protein)
chain: MSLSSLLKVVTASLWLGPGIAQKITQTQPGMFVQEKEAVTLDCTYDTSDPSYGLFWYKQPSSGEMIFLIYQGSYDQQNATEGRYSLNFQKARKSANLVISASQLGDSAMYFCAMTSGFGNEKLTFGTGTRLTIIPNIQNPDPAVYQLRDSKSSDKSVCLFTDFDSQTNVSQSKDSDVYITDKTVLDMRSMDFKSNSAVAWSNKSDFACANAFNNSIIPEDTFFPSPESSCDVKLVEKSFETDTNLNFQNLSVIGFRILLLKVAGFNLLMTLRLWSSRAKRSGSGATNFSLLKQAGDVEENPGPMGPGLLHWMALCLLGTGHGDAMVIQNPRYQVTQFGKPVTLSCSQTLNHNVMYWYQQKSSQAPKLLFHYYDKDFNNEADTPDNFQSRRPNTSFCFLDIRSPGLGDAAMYLCATSRGQGGQPQHFGDGTRLSILEDLNKVFPPEVAVFEPSEAEISHTQKATLVCLATGFFPDHVELSWWVNGKEVHSGVSTDPQPLKEQPALNDSRYCLSSRLRVSATFWQNPRNHFRCQVQFYGLSENDEWTQDRAKPVTQIVSAEAWGRADCGFTSVSYQQGVLSATILYEILLGKATLYAVLVSALVLMAMVKRKDF
Question: How did the IFN-γ (SK MEL37; Table 3) turn out when B1 was run?
Answer: 10000 pg/mL

Question: What about the IFN-γ (SK MEL37; Table 4) of the same molecule?
Answer: 9720 pg/mL

Question: What about the IFN-γ (COS-A2; Table 3) of the same molecule?
Answer: 297 pg/mL

Question: What about the IFN-γ (COS-A2; Table 4) of the same molecule?
Answer: 180 pg/mL

Question: What about the interferon-γ levels (COS-A2; Table 5 donor) of the same molecule?
Answer: 2839 pg/mL

Question: What about the interferon-γ levels (COS-A2; Table 6 donor) of the same molecule?
Answer: 460 pg/mL

Question: What about the IFN-γ (T331A mel; Table 3) of the same molecule?
Answer: 0 pg/mL

Question: What about the IFN-γ (T331A mel; Table 4) of the same molecule?
Answer: 42 pg/mL

Question: What about the interferon-γ levels (T331A mel; Table 5 donor) of the same molecule?
Answer: 30 pg/mL

Question: And the interferon-γ levels (T331A mel; Table 6 donor)?
Answer: 58 pg/mL

Question: What about the IFN-γ (293-A2; Table 3) of the same molecule?
Answer: 173 pg/mL

Question: What about the IFN-γ (293-A2; Table 4) of the same molecule?
Answer: 144 pg/mL

Question: And the interferon-γ levels (293-A2; Table 5 donor)?
Answer: 582 pg/mL

Question: And the interferon-γ levels (293-A2; Table 6 donor)?
Answer: 1520 pg/mL

Question: What about the IFN-γ (888; Table 3) of the same molecule?
Answer: 126 pg/mL

Question: And the IFN-γ (888; Table 4)?
Answer: 143 pg/mL

Question: And the IFN-γ (T567A; Table 3)?
Answer: 10280 pg/mL

Question: And the IFN-γ (T567A; Table 4)?
Answer: 13245 pg/mL

Question: What about the “proliferation ([3H]-thymidine incorporation)” value [1] of the same molecule?
Answer: proliferate in response to co-culture with SSX2+/HLA-A2+ target cells

Question: And the “lytic activity (percent lysis)” value [2]?
Answer: specific lytic activity against SSX-2^+/HLA-A2^+ target cells

Question: What about the IFN-γ (938-A2 mel) of the same molecule?
Answer: 19320 pg/mL

Question: And the “proliferation ([3H]-thymidine incorporation)” value (COS-A2-SSX-2 cells)?
Answer: proliferate in response to co-culture with COS-A2-SSX-2 cells

Question: What about the “activation marker CD137 (4-1BB)” value (COS-A2-SSX2 cells) of the same molecule?
Answer: upregulated
